According to article PMC9584609:

Columns and labels:
[1] = biological target: bClC-K tagged with mVenus and PAmCherry (Bos taurus); assay: native gel or EMSA; high-resolution clear native electrophoresis (hrCNE); lysate of transfected HEK293T cells in 0.1 M sodium phosphate with 0.5% digitonin or 20 mM DDM; 4-14% acrylamide gradient gel run at 4 °C; mVenus fluorescence scanned; VGLUTs and sialin with and without PNGaseF
[2] = biological target: ClC-2 tagged with mVenus and PAmCherry (human) (UniProt P51788); assay: as above

Sequence of ClC-2 tagged with mVenus and PAmCherry (P51788 2-898): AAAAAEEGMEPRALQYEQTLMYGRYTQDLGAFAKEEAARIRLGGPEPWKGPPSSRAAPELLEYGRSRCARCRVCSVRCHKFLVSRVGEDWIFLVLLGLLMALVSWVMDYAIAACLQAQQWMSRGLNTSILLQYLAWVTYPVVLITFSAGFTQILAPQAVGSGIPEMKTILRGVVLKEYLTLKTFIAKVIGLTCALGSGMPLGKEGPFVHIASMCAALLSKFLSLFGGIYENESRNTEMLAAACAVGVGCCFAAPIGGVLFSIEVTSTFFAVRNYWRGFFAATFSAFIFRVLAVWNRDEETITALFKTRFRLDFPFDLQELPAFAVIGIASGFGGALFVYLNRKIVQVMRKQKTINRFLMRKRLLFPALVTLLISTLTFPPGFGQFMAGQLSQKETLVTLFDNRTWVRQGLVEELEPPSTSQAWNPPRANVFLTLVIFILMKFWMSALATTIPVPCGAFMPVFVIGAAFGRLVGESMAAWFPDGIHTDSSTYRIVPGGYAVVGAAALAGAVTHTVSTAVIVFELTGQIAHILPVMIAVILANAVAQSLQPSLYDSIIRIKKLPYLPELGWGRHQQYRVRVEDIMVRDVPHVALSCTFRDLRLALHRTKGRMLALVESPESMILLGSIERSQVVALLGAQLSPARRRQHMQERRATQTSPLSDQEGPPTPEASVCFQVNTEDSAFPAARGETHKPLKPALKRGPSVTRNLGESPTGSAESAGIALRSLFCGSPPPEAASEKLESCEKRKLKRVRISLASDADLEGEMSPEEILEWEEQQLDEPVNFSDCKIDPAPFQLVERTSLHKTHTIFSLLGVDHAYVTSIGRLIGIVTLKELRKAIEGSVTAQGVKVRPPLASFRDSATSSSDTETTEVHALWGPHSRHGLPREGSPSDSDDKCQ

Row | stoichiometry N [1] | stoichiometry N [2] | Substance
1 | 2 |  | bClC-K tagged with mVenus and PAmCherry (natural protein)
2 |  | 2 | ClC-2 tagged with mVenus and PAmCherry (from UniProt P51788 1-898) (natural protein)
